Reference: patent US20090111104A1, “Method for Monitoring Hydrolytic Activity” (Fluorotechnics Pty Limited, priority 2005, published 2009)

Legend:
Format in all cases: biochemical, bovine
BSA [1] = molecular target: T1, BSA (Bos taurus, UniProt P02769); assay: Sub-sampled BSA tryptic digest visualised by SDS-PAGE (Deep Purple stain)
T1 construct: purchased Sigma-Aldrich A3059
Protocol: A.3.4 Visualization of Trypsin Digests in SDS-PAGE • 1 The reduced and denatured BSA sample from 3.2 above was diluted 10-fold in 50 mM bicine buffer (25 μL+225 μL bicine buffer). BSA molar concentration was calculated to be approx. 4 μM. • 2 One hundred microliter of the sample (step 1) was added to a 1.5 mL microtube. Controls included a bicine-based digestion buffer and an undigested BSA sample (no trypsin). • 3 Epicocconone stock solution was diluted 100-fold in 50 mM bicine. One hundred microliter of diluted epicocconone solution was added to each corresponding well. The final concentration was 12 μM. […] At each sampling point, 15 μL of the samples were taken out, immediately mixed with 15 μL of a protein gel loading buffer (2×), denatured for 5 min at 85° C., and stored at −80° C. • 6 The sub-samples collected as described above were run by SDS-PAGE (Nupage, 12% BT gel), and gels were stained with Deep Purple for visualization. • 7 The Deep Purple-stained gels were imaged by Typhoon scanner (Ex:Em=532:560 LP; 440 PMT). • 8 All the gel lanes showing digested (FIG. 12A) and undigested (FIG. 12B) protein samples were equally gated, and the fluorescent intensity was measured by ImageQuant (v 5.2) software.
The results from the subsampled reaction was similarly analysed but without the term associated with degradation of the signal with time as this is not relevant in gels. […]

BSA [2] = molecular target: T1, BSA; assay: Tryptic digestion of BSA followed with SYPROorange; details: SYPROorange reporter dye
Protocol: • As per Example 2 above. • SYPROorange (24 mM in DMSO, Molecular Probes) diluted to 100-fold in 50 mM bicine
As per Example 2 except the Fluorostar plate reader was set to 480 nm excitation and 600 (±10 nm) bandpass emission filter.

BSA [3] = molecular target: T1, BSA; assay: Tryptic digestion of BSA followed with Nile Red; details: Nile Red reporter dye
Protocol: • As per Example 2 above. • Nile Red (20 mM in ethanol, Sigma-Aldrich, 73189) diluted to 100-fold in 50 mM bicine
As per Example 2 except the Fluorostar plate reader was set to 520 nm excitation and 630 (±10 nm) bandpass emission filter.

BSA [4] = molecular target: T1, BSA; assay: SDS-PAGE validation of BSA proteolysis in the presence of different fluorophores (Example 7); details: after 120 minutes
Text: The normalised data were used for Prism analysis for obtaining the rate constants. In each case, the protein with fluorophore (open squares) is fitted to a single phase exponential decay (Y=span*exp(−kX)+plateau) and the value for k used as the fixed value for k1 in a two phase exponential decay (Y=span1*exp(−k1X)+span2*exp(−k2X)+plateau) for the protein plus papain (open circles). Through this method it was possible to measure the rate constants for hydrolysis and predict the time point for complete hydrolysis. […] It can be seen from this figure that the bands associated with the protein have disappeared after 120 minutes and that only a faint band for residual papain or trypsin can be seen. In some cases there are also some larger peptide fragments remaining after digestion that are resistant to further hydrolysis.

BSA [5] = molecular target: T1, BSA; assay: Tryptic digestion without dye, sub-sampled and quenched with protease inhibitors, then read with epicocconone (Example 8); details: no dye during digestion; sub-sampling and quenching with protease inhibitors
Protocol: 1. The trypsin inhibitors, leupeptin and trypsin-inhibitor (soybean) were prepared at a concentration of 1 mM in RO water and 0.48 mg/mL in RO water, respectively. 2. The protein samples were prepared as previously described in Example 6. The reduced and alkylated protein samples were diluted 1:10 in 100 mM bicine buffer (pH 8.4-5). 3. Trypsin (4.62 μg) was added to each protein sample (231 μg/300 μL) at a ratio of 1:50 and the samples were incubated at 37° C. 4. Sub-samples were collected for inhibition of trypsin activity either by leupeptin or by trypsin inhibitor (soybean). • a. Forty-five microlitres of the tryptic digests were sub-sampled at 0, 10, 20, 30, 60, […], 90, and 120 minutes and immediately added to 1.5 mL tubes containing 5 μL of 1 mM leupeptin. The sub-samples treated with leupeptin inhibitor were left at room temperature until fluorescence was read. • b. […] The sub-samples treated with soybean trypsin inhibitor were left at room temperature until fluorescence was read. […] Fluorescence of the sub-samples was read at Ex/Em=540-10/630-10 nm with 10 flashes. […] The fluorescence value was normalised by subtracting basal fluorescence of corresponding controls from the raw fluorescence of the sub-samples. […]

T1 sequence (P02769 25-607): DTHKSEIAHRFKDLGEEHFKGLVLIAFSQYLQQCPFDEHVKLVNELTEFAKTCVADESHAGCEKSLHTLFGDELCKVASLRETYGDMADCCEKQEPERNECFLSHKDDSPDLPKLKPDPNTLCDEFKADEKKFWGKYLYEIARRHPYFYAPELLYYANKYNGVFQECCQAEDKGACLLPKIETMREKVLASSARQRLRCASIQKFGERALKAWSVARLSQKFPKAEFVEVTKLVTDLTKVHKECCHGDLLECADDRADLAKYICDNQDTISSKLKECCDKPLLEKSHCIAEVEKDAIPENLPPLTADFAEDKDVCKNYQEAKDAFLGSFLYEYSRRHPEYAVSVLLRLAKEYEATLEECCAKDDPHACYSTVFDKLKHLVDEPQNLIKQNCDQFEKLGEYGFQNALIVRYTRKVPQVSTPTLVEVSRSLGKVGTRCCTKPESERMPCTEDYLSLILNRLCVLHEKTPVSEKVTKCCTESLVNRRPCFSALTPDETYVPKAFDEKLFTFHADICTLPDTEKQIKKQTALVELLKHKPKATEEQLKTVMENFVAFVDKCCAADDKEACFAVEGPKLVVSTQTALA

- time for digestion to reach completion (BSA [1]; SDS-PAGE, bicine and carbonate (NH4HCO3) digestion buffers): 0.5 to 1 h
- apparent first order rate constant (BSA [1]; sub-sampled reaction, gel fluorescence intensity, 0-128 min): 0.3136 min⁻¹
- apparent first order rate constant for tryptic digestion (BSA [2]): 0.1466 min⁻¹
- apparent first order rate constant for tryptic digestion (BSA [3]): 0.1302 min⁻¹
- digestion of BSA by SDS-PAGE (BSA [4]): complete digestion
- pseudo-first order rate constant for digestion of BSA (BSA [5]): 0.3 min⁻¹
B1: trypsin: Proteomics grade trypsin protease, Sigma-Aldrich T6567 (protein, UniProt P00761 9-231, looked up)
Trypsin: IVGGYTCAANSIPYQVSLNSGSHFCGGSLINSQWVVSAAHCYKSRIQVRLGEHNIDVLEGNEQFINAAKIITHPNFNGNTLDNDIMLIKLSSPATLNSRVATVSLPRSCAAAGTECLISGWGNTKSSGSSYPSLLQCLKAPVLSDSSCKSSYPGQITGNMICVGFLEGGKDSCQGDSGGPVVCNGQLQGIVSWGYGCAQKNKPGVYTKVCNYVNWIQQTIAAN
